The source of these data is patent US20240252641A1 (published 2024).

Sequences and labels used below:
T1: human CD70, recombinant, N-terminally biotinylated (residues 39-193) (human, UniProt P32970 39-193, N-terminal biotin)
T1 chain: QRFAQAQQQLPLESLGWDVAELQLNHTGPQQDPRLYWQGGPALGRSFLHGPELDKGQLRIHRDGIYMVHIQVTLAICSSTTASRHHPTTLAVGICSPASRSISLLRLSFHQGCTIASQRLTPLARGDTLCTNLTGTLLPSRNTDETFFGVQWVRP

B1: 1-TC4-I-C10 (scFv)
scFv: EVQLVQSGAEVKKPGESLKISCKGSGYSFTSYWIGWVRQMPGKGLEWMGIIYPGDSDTRYSPSFQGQVTISADKSISTAYLQWSSLKASDTAMYYCAISRTESYVMDVWGQGTTVTVSSGGSGGSGGSGGSQSALTQPRSVSGSPGQSVTISCTGTSSDVGGYNYVSWYQQHPGKAPKLMIYDVTNRPSGVPDRFSASKSDNTATLTVSGVQAEDEADYYCSSYAGSHELFGGGTKLTVL
B2: 39-TC6-IV-B08 (scFv)
scFv: QVQLVESGGGVVQPGGSLRLSCAASGFTFSSYAMHWVRQAPGKGLEWVAVISYDGSNKYYADSVKGRFTISRDNSKNTLYLQMNSLRAEDTAVYYCARDGHPYYYGMDVWGQGTTVTVSSGGSGGSGGSGGSQSALTQPASVSGSPGQSITISCTGTSSDVGDYNYVSWYQHHPGKAPKLMIYDVSNRPSGVSNRFSGSKSGNTASLTISGLQAEDEADYYCGSYTGSDTWVFGGGTKVTVL
B3: 50-TC7-III-A11 (scFv)
scFv: QVQLVQSGAEVKRPGASVKVSCKASGYTFTSYYMHWVRQAPGQGLEWMGIINPSGGSTSYAQKFQGRVTMTRDTSTSTVYMELSSLRSEDTAVYYCAIEPGYCSGGSCYPDAFDIWGQGTTVTVSSGGSGGSGGSGGSQSVLTQPPSASGTPGQRVTISCSGSSSNIGSDYVYWYQRVPGTAPKLLIYRDNQRPSGVPDRFSGSKSGTSASLAISGLRSDDEADYYCAAWDDSLSGWVFGGGTKVTVL
B4: R3P3H12 VHH (VHH)
VHH: QVQLQESGGGLVQTGGSLRLSCTASGSIFDIVRGSWYRQAPGNQRELVAIITSGGATNYADSVAGRFTISRDSAWKALYLQMNSLKPEDTAVYFCNMESVRYRNYWGQGTQVTVSS
B5: human CD27 fused to human Fc domain (Fc fusion)
chain: TPAPKSCPERHYWAQGKLCCQMCEPGTFLVKDCDQHRKAAQCDPCIPGVSFSPDHHTRPHCESCRHCNSGLLVRNCTITANAECACRNGWQCRDKECTECDPLPNPSLTARSSQALSPHPQPTHLPYVSEMLEARTAGHMQTLADFRQLPARTLSTHWPPQRSLCSSDFIRI
B6: R3P5A1 VHH (VHH)
VHH: QVQLQESGGGLVQPGGSLRLSCTASGSIFSATRMEWYRQAPGKQRELVAIVTSGGRTNYADSVNGRFTISRDNAKNTLYLQMNNLKPEDTAVYYCKFERYDYVNYWGRGTQVTVSS
B7: R3aP3E8 VHH (VHH)
VHH: QVQLQESGGGLVQPGGSLRLSCVASGSIFSIARMNWYRQAPGKQRELVAILNRAGRTDYADSVKGRFTISSDNAKTTVYLQMNSLKPEDTALYYCNLQTISYHDFWGQGTQVTVSS
B8: R3aP9D10 VHH (VHH)
VHH: QVQLQESGGGLVQAGGSLRLSCAAPGFTFDAYAIGWFRQAPGKEREGVICLSPSDGSTYYADSVKGRFTISSDNAKNTVYLQMNSLKPEDTAVYYCATPSWCSLKADFGSWGQGTQVTVSS
B9: CD70 (ligand)
chain: QRFAQAQQQLPLESLGWDVAELQLNHTGPQQDPRLYWQGGPALGRSFLHGPELDKGQLRIHRDGIYMVHIQVTLAICSSTTASRHHPTTLAVGICSPASRSISLLRLSFHQGCTIASQRLTPLARGDTLCTNLTGTLLPSRNTDETFFGVQWVRP
modifications: N-terminal biotin

For the first assay, the target named is T1, human CD70, recombinant, N-terminally …. As to the kind of experiment: Octet BLI steady-state. Background: Biolayer interferometry detects binding as a change in optical thickness at a sensor tip.
The Kd is the constant that tells how readily two partners part at equilibrium. Take B1: the Kd was found to be 56.7 nM.

B2: the Kd came out at 41.7 nM. The same measure, in the same setting: the result for B3 reads 55.7 nM.

Another assay shares this target. As to the kind of experiment: Octet BLI.
In the case of B4, the Kd turned out to be 0.16 nM. Still for that read-out and setting: the result for B5 reads 1.7 nM. As to B6, the Kd was 0.025 nM. Same read-out and setting: the value for B7 was 0.027 nM; that for B8 was 0.036 nM.

Another assay concerns the target 41D12 (LwH). As to the kind of experiment: Octet BLI.
Take B9: the Kd amounted to 0.001 nM.
